For assay [1], the target named is antigen of ESBA105 (not named in the examples) (UniProt P01375). As to the kind of experiment: assay not described.
Assay [2] concerns the target T1, antigen of ESBA105 (not named in the examples) (UniProt P01375 77-233, limits assumed). Description: assay not described.
For assay [3], the target named is T1, antigen of ESBA105 (not named in the …). Description: assay not described; reference itself.

T1 sequence (P01375 77-233 limits assumed): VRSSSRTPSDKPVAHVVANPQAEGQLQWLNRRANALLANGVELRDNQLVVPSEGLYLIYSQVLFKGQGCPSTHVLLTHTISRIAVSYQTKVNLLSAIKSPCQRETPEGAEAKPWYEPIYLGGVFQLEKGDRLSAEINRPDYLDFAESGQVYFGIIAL
Chain of antigen of ESBA105 (not named in the examples) (UniProt P01375) (P01375 77-233 limits assumed): as above

ESBA105 VH V103T (scFv) had an Activity relative to ESBA105 (relative to ESBA105) in assay [1] of 1.2.

Regarding ESBA105_VL V3Q (scFv), the Binding Activity (relative to parental ESBA105) (relative to parental ESBA105) in assay [1] is 1.2.

B1: ESBA105_QC15.2 (scFv, V domains shown)
VH: QVQLVQSGAEVKKPGASVKVSCTASGYTFTHYGMNWVRQAPGRGLEWMGWINTYTGEPTYADKFKDRITFSLETSASTVYMELTSLTSDDTAVYYCARERGDAMDYWGQGTLVTVSS
VL: DIVMTQSPSSLSASVGDRVTLTCTASQSVSNDVVWYQQRPGKAPKLLIYSAFNRYTGVPSRFSGRGYGTDFTLTISSLQPEDVAVYYCQQDYNSPRTFGQGTKLEVK
Turning to B1, the “Binding Activity (relative to parental ESBA105)” value in assay [2] is 1 relative to parental ESBA105.

B2: ESBA105 (scFv)
chain: MADIVMTQSPSSLSASVGDRVTLTCTASQSVSNDVVWYQQRPGKAPKLLIYSAFNRYTGVPSRFSGRGYGTDFTLTISSLQPEDVAVYYCQQDYNSPRTFGQGTKLEVKRGGGGSGGGGSGGGGSSGGGSQVQLVQSGAEVKKPGASVKVSCTASGYTFTHYGMNWVRQAPGKGLEWMGWINTYTGEPTYADKFKDRFTFSLETSASTVYMELTSLTSDDTAVYYCARERGDAMDYWGQGTLVTVSS
As for B2, the “Activity relative to ESBA105” value in assay [3] was 1 relative to ESBA105.

The values are drawn from US20090074780A1 (ESBATECH AN ALCON BIOMEDICAL RESEARCH UNIT, published 2009).
